Source: patent US20130243795A1 (Janssen / Centocor, published 2013)

Assays:
[1] = target: Human CD27, full length on the cell surface (human, UniProt P26842 21-260); assay: cell-based or functional assay
[2] = target: T1, Human CD27 ECD, monomeric soluble (construct limits not stated) (human, UniProt P26842 20-191); assay: Biacore SPR, purified mAb, CD27 ECD
T1 construct: extracellular domain; target of the Biacore assays; also called monomeric soluble CD27; CD27-His

[3] = target: T2, Human CD27 ECD truncated (ECD 1-121, cleavage site, His6) (human); assay: ELISA signal for binding to CD27, initial small culture supernatants
T2 construct: also called human CD27 ECD with His Tag; CD27-His
T2 chain: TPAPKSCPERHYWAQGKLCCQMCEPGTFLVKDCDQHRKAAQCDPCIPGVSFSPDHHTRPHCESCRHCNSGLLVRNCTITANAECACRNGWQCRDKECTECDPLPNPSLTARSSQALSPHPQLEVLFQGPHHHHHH

[4] = target: T3, Human CD27 ECD (ECD 1-173, His6) (human, UniProt P26842 21-193, biotinylated on amine residues (NHS-ester) where used biotinylated); assay: single point Fab ELISA
T3 construct: also called biotinylated human CD27 ECD

Chain of Human CD27, full length on the cell surface (P26842 21-260 H233R): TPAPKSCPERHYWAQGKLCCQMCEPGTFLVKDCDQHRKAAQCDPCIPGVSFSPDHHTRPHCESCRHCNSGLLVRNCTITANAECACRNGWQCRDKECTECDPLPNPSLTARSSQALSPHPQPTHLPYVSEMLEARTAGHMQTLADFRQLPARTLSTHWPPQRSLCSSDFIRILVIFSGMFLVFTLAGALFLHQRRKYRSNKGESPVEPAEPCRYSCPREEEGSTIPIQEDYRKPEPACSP
T1 sequence (P26842 20-191): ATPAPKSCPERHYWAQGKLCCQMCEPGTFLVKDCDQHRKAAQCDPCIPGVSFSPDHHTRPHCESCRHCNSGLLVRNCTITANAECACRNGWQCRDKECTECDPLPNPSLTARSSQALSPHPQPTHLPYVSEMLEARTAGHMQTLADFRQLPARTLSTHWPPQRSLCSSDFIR

| Binder | NFkB IC50 [1] [nM] | Kd [2] [nM] | ELISA signal [3] | binding result [4] |
| --- | --- | --- | --- | --- |
| M489 (antibody, IgG1, V domains shown, also called H227/L250) VH: QVQLVESGGGLVKPGGSLRLSCAASGFTFSSYGMSWIRQAPGKGLEWVSYIDEGGGQTIYPDSVKGRFTISRDNAKNSLYLQMNSLRAEDTAVYYCARHRGNPFDYWGQGTLVTVSS VL: DIQMTQSPSSLSASVGDRVTITCRASKSVSLDRWSFMHWYQQKPGKAPKLLIYLASNLESGVPSRFSGSGSGTDFTFTISSLQPEDIATYYCQHSRELPWTFGQGTKVEIK | 0.041 | 0.0241 | 0.96 | – |
| M488 (antibody, IgG1, V domains shown, also called H227/L249) VH: QVQLVESGGGLVKPGGSLRLSCAASGFTFSSYGMSWIRQAPGKGLEWVSYIDEGGGQTIYPDSVKGRFTISRDNAKNSLYLQMNSLRAEDTAVYYCARHRGNPFDYWGQGTLVTVSS VL: DIQMTQSPSSLSASVGDRVTITCRASKSVSEGRWSFMHWYQQKPGKAPKLLIYVASRLESGVPSRFSGSGSGTDFTFTISSLQPEDIATYYCQHSRELPWTFGQGTKVEIK | 0.023 | 0.0394 | 0.92 | – |
| F243 (Fab, V domains shown, also called H39/L124) VH: EVQLLESGGGLVQPGGSLRLSCAASGFTFSSYTMSWVRQAPGKGLEWVSYISSGGGNTYYPDSVKGRFTISRDNSKNTLYLQMNSLRAEDTAVYYCARHRGNPFDYWGQGTLVTVSS VL: DIQMTQSPSSLSASVGDRVTITCRASKSVSTSGYSFMHWYQQKPGKAPKLLIYVGSRMAFGVPSRFSGSGSGTDFTLTISSLQPEDFATYYCQHSRELPWTFGQGTKVEIK | – | – | – | binds |
| F302 (Fab, V domains shown, also called H39/L179) VH: EVQLLESGGGLVQPGGSLRLSCAASGFTFSSYTMSWVRQAPGKGLEWVSYISSGGGNTYYPDSVKGRFTISRDNSKNTLYLQMNSLRAEDTAVYYCARHRGNPFDYWGQGTLVTVSS VL: DIQMTQSPSSLSASVGDRVTITCRASKSVSLIRWSFMHWYQQKPGKAPKLLIYLASNLESGVPSRFSGSGSGTDFTLTISSLQPEDFATYYCQHSRELPWTFGQGTKVEIK | – | – | – | binds |
| M526 (antibody, IgG1, V domains shown, also called H222/L249) VH: QVQLVESGGGLVKPGGSLRLSCAASGFTFSSYGMSWIRQAPGKGLEWVSYIDRGGGVTIYPDSVKGRFTISRDNAKNSLYLQMNSLRAEDTAVYYCARHRGNPFDYWGQGTLVTVSS VL: DIQMTQSPSSLSASVGDRVTITCRASKSVSEGRWSFMHWYQQKPGKAPKLLIYVASRLESGVPSRFSGSGSGTDFTFTISSLQPEDIATYYCQHSRELPWTFGQGTKVEIK | 0.006 | 0.171 | 0.69 | – |
| F256 (Fab, V domains shown, also called H39/L137) VH: EVQLLESGGGLVQPGGSLRLSCAASGFTFSSYTMSWVRQAPGKGLEWVSYISSGGGNTYYPDSVKGRFTISRDNSKNTLYLQMNSLRAEDTAVYYCARHRGNPFDYWGQGTLVTVSS VL: DIQMTQSPSSLSASVGDRVTITCRASKSVSTSGYSFMHWYQQKPGKAPKLLIYVGSRLDYGVPSRFSGSGSGTDFTLTISSLQPEDFATYYCQHSRELPWTFGQGTKVEIK | – | – | – | binds |
| F19 (Fab, V domains shown, also called H41/L40) VH: EVQLLESGGGLVQPGGSLRLSCAASGFTFSSYTMSWVRQAPGKGLEWVSAIDHGGGRTWYPDSVKGRFTISRDNSKNTLYLQMNSLRAEDTAVYYCARHRGNPFDYWGQGTLVTVSS VL: DIQMTQSPSSLSASVGDRVTITCRASKSVSTSGYSFMHWYQQKPGKAPKLLIYLASNLESGVPSRFSGSGSGTDFTLTISSLQPEDFATYYCQHSRELPWTFGQGTKVEIK | – | – | – | binds |
| F292 (Fab, V domains shown, also called H39/L173) VH: EVQLLESGGGLVQPGGSLRLSCAASGFTFSSYTMSWVRQAPGKGLEWVSYISSGGGNTYYPDSVKGRFTISRDNSKNTLYLQMNSLRAEDTAVYYCARHRGNPFDYWGQGTLVTVSS VL: DIQMTQSPSSLSASVGDRVTITCRASKSVSHVRWSFMHWYQQKPGKAPKLLIYLASNLESGVPSRFSGSGSGTDFTLTISSLQPEDFATYYCQHSRELPWTFGQGTKVEIK | – | – | – | binds |
| F299 (Fab, V domains shown, also called H192/L40) VH: EVQLLESGGGLVQPGGSLRLSCAASGFTFSSYTMSWVRQAPGKGLEWVSVIDHGGGSTHYPDSVKGRFTISRDNSKNTLYLQMNSLRAEDTAVYYCARHRGNPFDYWGQGTLVTVSS VL: DIQMTQSPSSLSASVGDRVTITCRASKSVSTSGYSFMHWYQQKPGKAPKLLIYLASNLESGVPSRFSGSGSGTDFTLTISSLQPEDFATYYCQHSRELPWTFGQGTKVEIK | – | – | – | binds |
| F57 (Fab, V domains shown, also called H79/L40) VH: EVQLLESGGGLVQPGGSLRLSCAASGFTFSSYTMSWVRQAPGKGLEWVSAIDHGGGQTLYPDSVKGRFTISRDNSKNTLYLQMNSLRAEDTAVYYCARHRGNPFDYWGQGTLVTVSS VL: DIQMTQSPSSLSASVGDRVTITCRASKSVSTSGYSFMHWYQQKPGKAPKLLIYLASNLESGVPSRFSGSGSGTDFTLTISSLQPEDFATYYCQHSRELPWTFGQGTKVEIK | – | – | – | binds |
| F18 (Fab, V domains shown, also called H40/L40) VH: EVQLLESGGGLVQPGGSLRLSCAASGFTFSSYTMSWVRQAPGKGLEWVSAIDHGGGRTYYPDSVKGRFTISRDNSKNTLYLQMNSLRAEDTAVYYCARHRGNPFDYWGQGTLVTVSS VL: DIQMTQSPSSLSASVGDRVTITCRASKSVSTSGYSFMHWYQQKPGKAPKLLIYLASNLESGVPSRFSGSGSGTDFTLTISSLQPEDFATYYCQHSRELPWTFGQGTKVEIK | – | – | – | binds |
| M492 (antibody, IgG1, V domains shown, also called H228/L249) VH: QVQLVESGGGLVKPGGSLRLSCAASGFTFSSYSMSWIRQAPGKGLEWVSYIDAGGGFTIYPDSVKGRFTISRDNAKNSLYLQMNSLRAEDTAVYYCARHRGNPFDYWGQGTLVTVSS VL: DIQMTQSPSSLSASVGDRVTITCRASKSVSEGRWSFMHWYQQKPGKAPKLLIYVASRLESGVPSRFSGSGSGTDFTFTISSLQPEDIATYYCQHSRELPWTFGQGTKVEIK | 0.015 | 0.142 | 0.77 | – |
| M429 (antibody, IgG1, V domains shown, also called H227/L245) VH: QVQLVESGGGLVKPGGSLRLSCAASGFTFSSYGMSWIRQAPGKGLEWVSYIDEGGGQTIYPDSVKGRFTISRDNAKNSLYLQMNSLRAEDTAVYYCARHRGNPFDYWGQGTLVTVSS VL: DIQMTQSPSSLSASVGDRVTITCRASKSVSHVRWSFMHWYQQKPGKAPKLLIYLASKLESGVPSRFSGSGSGTDFTFTISSLQPEDIATYYCQHSRELPWTFGQGTKVEIK | 0.042 | 0.0304 | 0.86 | – |
| M427 (antibody, IgG1, V domains shown, also called H227/L244; C27H227/C27L244) VH: QVQLVESGGGLVKPGGSLRLSCAASGFTFSSYGMSWIRQAPGKGLEWVSYIDEGGGQTIYPDSVKGRFTISRDNAKNSLYLQMNSLRAEDTAVYYCARHRGNPFDYWGQGTLVTVSS VL: DIQMTQSPSSLSASVGDRVTITCRASKSVSAWGYSFMHWYQQKPGKAPKLLIYVASRLESGVPSRFSGSGSGTDFTFTISSLQPEDIATYYCQHSRELPWTFGQGTKVEIK | 0.019 | 0.0417 | 0.93 | – |
| F298 (Fab, V domains shown, also called H191/L40) VH: EVQLLESGGGLVQPGGSLRLSCAASGFTFSSYTMSWVRQAPGKGLEWVSAIDGGGGATYYPDSVKGRFTISRDNSKNTLYLQMNSLRAEDTAVYYCARHRGNPFDYWGQGTLVTVSS VL: DIQMTQSPSSLSASVGDRVTITCRASKSVSTSGYSFMHWYQQKPGKAPKLLIYLASNLESGVPSRFSGSGSGTDFTLTISSLQPEDFATYYCQHSRELPWTFGQGTKVEIK | – | – | – | binds |
| F295 (Fab, V domains shown, also called H39/L176) VH: EVQLLESGGGLVQPGGSLRLSCAASGFTFSSYTMSWVRQAPGKGLEWVSYISSGGGNTYYPDSVKGRFTISRDNSKNTLYLQMNSLRAEDTAVYYCARHRGNPFDYWGQGTLVTVSS VL: DIQMTQSPSSLSASVGDRVTITCRASKSVSTSGYSFMHWYQQKPGKAPKLLIYVADRVEVGVPSRFSGSGSGTDFTLTISSLQPEDFATYYCQHSRELPWTFGQGTKVEIK | – | – | – | binds |
| F297 (Fab, V domains shown, also called H190/L40) VH: EVQLLESGGGLVQPGGSLRLSCAASGFTFSSYTMSWVRQAPGKGLEWVSTIDRGGGSTWYPDSVKGRFTISRDNSKNTLYLQMNSLRAEDTAVYYCARHRGNPFDYWGQGTLVTVSS VL: DIQMTQSPSSLSASVGDRVTITCRASKSVSTSGYSFMHWYQQKPGKAPKLLIYLASNLESGVPSRFSGSGSGTDFTLTISSLQPEDFATYYCQHSRELPWTFGQGTKVEIK | – | – | – | binds |
| F291 (Fab, V domains shown, also called H39/L172) VH: EVQLLESGGGLVQPGGSLRLSCAASGFTFSSYTMSWVRQAPGKGLEWVSYISSGGGNTYYPDSVKGRFTISRDNSKNTLYLQMNSLRAEDTAVYYCARHRGNPFDYWGQGTLVTVSS VL: DIQMTQSPSSLSASVGDRVTITCRASKSVSHIRWSFMHWYQQKPGKAPKLLIYLASNLESGVPSRFSGSGSGTDFTLTISSLQPEDFATYYCQHSRELPWTFGQGTKVEIK | – | – | – | binds |
| F279 (Fab, V domains shown, also called H39/L160) VH: EVQLLESGGGLVQPGGSLRLSCAASGFTFSSYTMSWVRQAPGKGLEWVSYISSGGGNTYYPDSVKGRFTISRDNSKNTLYLQMNSLRAEDTAVYYCARHRGNPFDYWGQGTLVTVSS VL: DIQMTQSPSSLSASVGDRVTITCRASKSVSYVRWSFMHWYQQKPGKAPKLLIYLASNLESGVPSRFSGSGSGTDFTLTISSLQPEDFATYYCQHSRELPWTFGQGTKVEIK | – | – | – | binds |
